In the RNAGym collection of RNA variant scans (doi:10.7554/elife.90254):

B1: LINE1-mini (parent)
chain: GGCAGAGCUCAACACAGCGUGGCAAAGUGGCUGUGGCUAGACUGCC

Variants of: B1
Experiment: self-cleavage, relative activity (ratio to wild type); higher = more cleavage; in vitro, sequencing; the parent is a self-cleaving ribozyme

Row | Variant | self-cleavage
1 | GGCAGAGCUCUACACAGCGUGGCAAAGUGGCUGUAGCUAGACUGCC | 0.04
2 | GGCAGAGCUCUACACAGCGUGGCAAAGUGGCUGUCGCUAGACUGCC | 0.01
3 | GGCAGAGCUCUACACAGCGUGGCAAAGUGGCUGUUGCUAGACUGCC | 0.02
4 | GGCAGAGCUCUAGACAGCGUGGCAAAGUGGCUGUGGCUAGACUGCC | 0.03
5 | GGCAGAGCUCUAUACAGCGUGGCAAAGUGGCUGUGGCUAGACUGCC | 0.04
6 | GGCAGAGCUCUAAACAGCGUGGCAAAGUGGCUGUGGCUAGACUGCC | 0.02
7 | GGCAGAGCUCUACACAGCGUGGCAAAGUUGCUGUGGCUAGACUGCC | 0.17
8 | GGCAGAGCUCUACACAGCGUGGCAAAGUAGCUGUGGCUAGACUGCC | 0.14
9 | GGCAGAGCUCUACACAGCGUGGCAAAGUCGCUGUGGCUAGACUGCC | 0.09
10 | GGCAGAGCUCACCACAGCGUGGCACAGUGGCUGUGGCUAGACUGCC | 0.03
11 | GGCAGAGCUCACCACAGCGUGGCAUAGUGGCUGUGGCUAGACUGCC | 0.01
12 | GGCAGAGCUCACCACAGCGUGGCAGAGUGGCUGUGGCUAGACUGCC | 0.02
13 | GGCAGAGCUCACCACAGGGUGGCAAAGUGGCUGUGGCUAGACUGCC | 0.02
14 | GGCAGAGCUCACCACAGAGUGGCAAAGUGGCUGUGGCUAGACUGCC | 0.03
15 | GGCAGAGCUCUACACAGCGUGGAAAAGUGGCUGUGGCUAGACUGCC | 0.16
16 | GGCAGAGCUCUACACAGCGUGGGAAAGUGGCUGUGGCUAGACUGCC | 0.11
17 | GGCAGAGCUCUACACAGCGUGGUAAAGUGGCUGUGGCUAGACUGCC | 0.1
18 | GGCAGAGCUCUACACAGCGUAGCAAAGUGGCUGUGGCUAGACUGCC | 0.33
19 | GGCAGAGCUCUACACAGCGUUGCAAAGUGGCUGUGGCUAGACUGCC | 0.1

Row | Variant | self-cleavage
20 | GGCAGAGCUCUACACAGCGUCGCAAAGUGGCUGUGGCUAGACUGCC | 0.12
21 | GGCAGAGCUCUACACAGCGUGGCAAAGUGGCCGUGGCUAGACUGCC | 0.04
22 | GGCAGAGCUCUACACAGCGUGGCAAAGUGGCAGUGGCUAGACUGCC | 0.03
23 | GGCAGAGCUCUACACAGCGUGGCAAAGUGGCGGUGGCUAGACUGCC | 0.03
24 | GGCAGAGCUCUACACAGCGUGGCAAAGUGGCUGUGGCUAGACUACC | 0.05
25 | GGCAGAGCUCUACACAGCGUGGCAAAGUGGCUGUGGCUAGACUCCC | 0.03
26 | GGCAGAGCUCUACACAGCGUGGCAAAGUGGCUGUGGCUAGACUUCC | 0.05
27 | GGCAGAGCUCUACACAGCGUGGCAAAGUGGCUGUGGCUAAACUGCC | 0.03
28 | GGCAGAGCUCUACACAGCGUGGCAAAGUGGCUGUGGCUAUACUGCC | 0.04
29 | GGCAGAGCUCUACACAGCGUGGCAAAGUGGCUGUGGCUACACUGCC | 0.02
30 | GGCAGAGCUCACCACGGCGUGGCAAAGUGGCUGUGGCUAGACUGCC | 0.02
31 | GGCAGAGCUCACCACCGCGUGGCAAAGUGGCUGUGGCUAGACUGCC | 0.03
32 | GGCAGAGCUCACCACUGCGUGGCAAAGUGGCUGUGGCUAGACUGCC | 0.01
33 | GGCAGAGCUCUACACAGCGUGGCAAAGUGGCUGUGUCUAGACUGCC | 0.03
34 | GGCAGAGCUCUACACAGCGUGGCAAAGUGGCUGUGCCUAGACUGCC | 0.03
35 | GGCAGAGCUCUACACAGCGUGGCAAAGUGGCUGUGACUAGACUGCC | 0.02
36 | GGCAGAGCUCACCAUAGCGUGGCAAAGUGGCUGUGGCUAGACUGCC | 0.03
37 | GGCAGAGCUCACCAGAGCGUGGCAAAGUGGCUGUGGCUAGACUGCC | 0.03
38 | GGCAGAGCUCACCAAAGCGUGGCAAAGUGGCUGUGGCUAGACUGCC | 0.03

Row | Variant | self-cleavage
39 | GGCAGAGCUCUACACAGCGUGGCAAAGGGGCUGUGGCUAGACUGCC | 0.12
40 | GGCAGAGCUCUACACAGCGUGGCAAAGAGGCUGUGGCUAGACUGCC | 0.11
41 | GGCAGAGCUCUACACAGCGUGGCAAAGCGGCUGUGGCUAGACUGCC | 0.22
42 | GGCAGAGCUCUACACAGCGUGGCAAAGUGGAUGUGGCUAGACUGCC | 0.04
43 | GGCAGAGCUCUACACAGCGUGGCAAAGUGGUUGUGGCUAGACUGCC | 0.1
44 | GGCAGAGCUCUACACAGCGUGGCAAAGUGGGUGUGGCUAGACUGCC | 0.03
45 | GGCAGAGCUCUACAGAGCGUGGCAAAGUGGCUGUGGCUAGACUGCC | 0.02
46 | GGCAGAGCUCUACAUAGCGUGGCAAAGUGGCUGUGGCUAGACUGCC | 0.17
47 | GGCAGAGCUCUACAAAGCGUGGCAAAGUGGCUGUGGCUAGACUGCC | 0.03
48 | GGCAGAGCUCUACACAGCGUGUCAAAGUGGCUGUGGCUAGACUGCC | 0.15
49 | GGCAGAGCUCUACACAGCGUGCCAAAGUGGCUGUGGCUAGACUGCC | 0.07
50 | GGCAGAGCUCUACACAGCGUGACAAAGUGGCUGUGGCUAGACUGCC | 0.34
51 | GGCAGAGCUCUACACAGCCUGGCAAAGUGGCUGUGGCUAGACUGCC | 0.1
52 | GGCAGAGCUCUACACAGCUUGGCAAAGUGGCUGUGGCUAGACUGCC | 0.12
53 | GGCAGAGCUCUACACAGCAUGGCAAAGUGGCUGUGGCUAGACUGCC | 0.27
54 | GGCAGAGCUCUACACAGCGUGGCAAAGUGGCUGUGGCUAGAUUGCC | 0.02
55 | GGCAGAGCUCUACACAGCGUGGCAAAGUGGCUGUGGCUAGAAUGCC | 0.03
56 | GGCAGAGCUCUACACAGCGUGGCAAAGUGGCUGUGGCUAGAGUGCC | 0.02
